Positions count from the first letter of the chain named. Numbers in names are those of the source. Blank lines part the entries; values can stand above or below the molecule they belong to.
What was measured:
[1] = biological target: VirD (Streptomyces virginiae); assay: other fluorescence titration; tryptophan fluorescence quenching; VirC, VirD, VirD mutant or VirE at 5 μM in TE buffer (20 mM Tris-HCl pH 8.5, 2 mM EDTA), 25 °C, titrated with ACP ligand (0–150 μM); excitation 295 nm; one site-specific binding model; averaged data of two independent measurements
[2] = biological target: VirC (Streptomyces virginiae); assay: as above
[3] = biological target: VirE (Streptomyces virginiae); assay: as above
[4] = biological target: VirE (Streptomyces virginiae); assay: SAXS; SEC-coupled SAXS (SWING beamline, Bio-SEC 100 Å column), 15 °C, 20 mM Tris-HCl pH 8.5, 300 mM NaCl, 5% glycerol, 50 μL at 5 mg/mL; curves compared with crystal structures or models (CRYSOL, SASREF)
[5] = biological target: VirD (Streptomyces virginiae); assay: as above
[6] = biological target: Se-VirD (Streptomyces virginiae); assay: crystal structure; Se-VirD alone, 20% PEG 400, 20% PEG 800, 100 mM Tris-HCl pH 7.5; space group P4(1)2(1)2; Se-SAD, 1.7 Å
[7] = biological target: Se-VirD (Streptomyces virginiae); assay: crystal structure; holo-ACP5b–Se-VirD complex, hanging drop, ratio 1:4, 100 mM calcium chloride, 30% PEG 1500, 10% 2-propanol, 100 mM imidazole-HCl pH 6.5; space group H3; 2.1 Å
[8] = biological target: VirD E128Q (Streptomyces virginiae); assay: other fluorescence titration; tryptophan fluorescence quenching; VirC, VirD, VirD mutant or VirE at 5 μM in TE buffer (20 mM Tris-HCl pH 8.5, 2 mM EDTA), 25 °C, titrated with ACP ligand (0–150 μM); excitation 295 nm; one site-specific binding model; averaged data of two independent measurements

Kd [1]: 166 µM | Kd [2]: 78 µM
Molecule: apo-Sna ACP7 (domain or fragment)

Kd [1]: 75 µM | Kd [3]: 301 µM | Kd [2]: 75 µM
Molecule: apo-ACP7 (domain or fragment)

Kd [1]: 4.3 µM | Kd [3]: 22 µM | Kd [2]: 18 µM
Molecule: holo-ACP7 (domain or fragment)

Kd [1]: 13 µM | Kd [2]: 13 µM
Molecule: holo-Sna ACP7 (domain or fragment)

Kd [1]: 19 µM | Kd [3]: 42 µM | Kd [2]: 17 µM
Molecule: holo-ACP5a-ACP5b didomain (domain or fragment)

Kd [1]: 4.1 µM | Kd [2]: 11 µM
B3: holo-ACP5a L6764N (domain or fragment)
chain: GPGSAGRQEEIAEEVARLLAGVLYLEPDRLDPEETFNTLGVDSILGVEFVAAVNAAYPVGVKATALYDHPTPAAFARHIAESLGA
modifications: phosphopantetheine (holo form)

Kd [1]: 6.1 µM | Kd [2]: 4.7 µM
B5: holo-ACP5a E6761A (domain or fragment)
chain: B3 chain with E34A, N37L
modifications: phosphopantetheine (holo form)

Kd [3]: 287 µM
B6: methylcrotonyl-ACP5a (domain or fragment)
chain: B3 chain with N37L
modifications: methylcrotonyl form (3-methylcrotonate as substrate mimic on the phosphopantetheine)

Kd [1]: 7 µM | Kd [2]: 10 µM
B8: holo-ACP5a E6761A/L6764N (domain or fragment)
chain: B3 chain with E34A
modifications: phosphopantetheine (holo form)

Kd [3]: 30 µM
B13: methylcrotonyl-ACP5b (domain or fragment)
chain: GPGSAVAVDPAPVARALREELARTLYCEPGDIDDEASFNTLGLDSILGVEFVAFVNQTYGLDEKAGILYDHPSLAALSRHVAGRAAPV
modifications: methylcrotonyl form (3-methylcrotonate as substrate mimic on the phosphopantetheine)

Kd [1]: 2.9 µM | Kd [3]: 6.8 µM | Kd [2]: 3.8 µM
B15: holo-ACP5b (domain or fragment)
chain: B13 chain
modifications: phosphopantetheine (Ppant) on S6871

Continued, molecule first:

Molecule: VirE (enzyme)
stoichiometry N [4]: 3

Molecule: VirD (enzyme)
stoichiometry N [5]: 3

Molecule: Se-VirD (enzyme)
stoichiometry N [6]: 3 | stoichiometry N [7]: 3

B1: apo-ACP5a (domain or fragment)
chain: B3 chain with N37L
Kd [1]: 102 µM | Kd [3]: 653 µM | Kd [2]: 166 µM

B2: apo-ACP5a E6761A (domain or fragment)
chain: B3 chain with E34A, N37L
Kd [1]: 186 µM | Kd [2]: 108 µM

B4: apo-ACP5a E6761A/L6764N (domain or fragment)
chain: B3 chain with E34A
Kd [1]: 117 µM | Kd [2]: 61 µM

B7: apo-ACP5a L6764N (domain or fragment)
chain: B3 chain
Kd [1]: 83 µM | Kd [2]: 89 µM

B9: acetoacetyl-ACP5a (domain or fragment)
chain: B3 chain with N37L
modifications: acetoacetyl form (acetoacetate as substrate mimic on the phosphopantetheine)
Kd [2]: 40 µM

B10: HMG-ACP5a (domain or fragment)
chain: B3 chain with N37L
modifications: HMG form ((RS)-3-hydroxy-3-methylglutarate as substrate mimic on the phosphopantetheine)
Kd [1]: 51 µM

B11: acetoacetyl-ACP5b (domain or fragment)
chain: B13 chain
modifications: acetoacetyl form (acetoacetate as substrate mimic on the phosphopantetheine)
Kd [2]: 4.3 µM

B12: apo-ACP5b (domain or fragment)
chain: B13 chain
Kd [1]: 178 µM | Kd [3]: 171 µM | Kd [2]: 77 µM

B14: HMG-ACP5b (domain or fragment)
chain: B13 chain
modifications: HMG form ((RS)-3-hydroxy-3-methylglutarate as substrate mimic on the phosphopantetheine)
Kd [1]: 39 µM | Kd [8]: 33 µM
